Results published in the supplement of paper PMC9112550, “Optimization of the antimicrobial peptide Bac7 by deep mutational scanning” (BMC Biology, 2022).

tested on: Escherichia coli TOP10; test: shrunken log2 fold change of peptide-encoding DNA abundance (4.5 h post-induction vs induction); higher = less antimicrobial activity (less host growth inhibition); details: time post-induction: 4.5 h; library: site-saturation at positions 5, 18, 19, 20
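Note: peptides expressed intracellularly from a pBAD plasmid library in pooled LB shake-flask culture, induced with 0.3% L-arabinose, DNA abundance read by NGS, three biological replicates, DESeq2 with apeglm shrinkage.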

Sequence | shrunken log2 fold change
RRIRSRPPRLPRPRPRPNDIPRP | -0.333
RRIRSRPPRLPRPRPRPNDRPRP | 0.0698
RRIRSRPPRLPRPRPRPNEAPRP | 0.162
RRIRSRPPRLPRPRPRPNEVPRP | -0.131
RRIRSRPPRLPRPRPRPNFEPRP | -0.068
RRIRSRPPRLPRPRPRPNGSPRP | -0.21
RRIRSRPPRLPRPRPRPNIDPRP | -0.204
RRIRSRPPRLPRPRPRPNIPPRP | -0.492
RRIRSRPPRLPRPRPRPNKGPRP | -0.413
RRIRSRPPRLPRPRPRPNKRPRP | -0.174
RRIRSRPPRLPRPRPRPNKYPRP | -0.653
RRIRSRPPRLPRPRPRPNLDPRP | -0.0975
RRIRSRPPRLPRPRPRPNLVPRP | -0.0453
RRIRSRPPRLPRPRPRPNLYPRP | -0.167
RRIRSRPPRLPRPRPRPNNQPRP | -0.104
RRIRSRPPRLPRPRPRPNPAPRP | -0.0743
RRIRSRPPRLPRPRPRPNPPPRP | -0.222
RRIRSRPPRLPRPRPRPNPWPRP | -0.0604
RRIRSRPPRLPRPRPRPNQIPRP | 0.0721
RRIRSRPPRLPRPRPRPNQKPRP | -0.162
RRIRSRPPRLPRPRPRPNQTPRP | 0.0606
RRIRSRPPRLPRPRPRPNRPPRP | -0.0188

Sequence | shrunken log2 fold change
RRIRSRPPRLPRPRPRPNRSPRP | -0.0737
RRIRSRPPRLPRPRPRPNSTPRP | -0.573
RRIRSRPPRLPRPRPRPNSVPRP | -0.509
RRIRSRPPRLPRPRPRPNSYPRP | -0.00251
RRIRSRPPRLPRPRPRPNTCPRP | -0.808
RRIRSRPPRLPRPRPRPNVCPRP | -0.0635
RRIRSRPPRLPRPRPRPNVEPRP | 0.814
RRIRSRPPRLPRPRPRPNVGPRP | -0.0139
RRIRSRPPRLPRPRPRPNVYPRP | -0.257
RRIRSRPPRLPRPRPRPNWAPRP | 0.64
RRIRSRPPRLPRPRPRPNWHPRP | -0.137
RRIRSRPPRLPRPRPRPPDFPRP | 0.29
RRIRSRPPRLPRPRPRPPDPPRP | 0.472
RRIRSRPPRLPRPRPRPPDYPRP | -0.0864
RRIRSRPPRLPRPRPRPPECPRP | 0.0423
RRIRSRPPRLPRPRPRPPEKPRP | 0.797
RRIRSRPPRLPRPRPRPPENPRP | 0.679
RRIRSRPPRLPRPRPRPPEPPRP | 0.373
RRIRSRPPRLPRPRPRPPFEPRP | 0.518
RRIRSRPPRLPRPRPRPPFIPRP | -0.252
RRIRSRPPRLPRPRPRPPFLPRP | -0.0588
RRIRSRPPRLPRPRPRPPGIPRP | 0.157

Sequence | shrunken log2 fold change
RRIRSRPPRLPRPRPRPPIIPRP | -0.135
RRIRSRPPRLPRPRPRPPNFPRP | 0.291
RRIRSRPPRLPRPRPRPPNMPRP | -0.118
RRIRSRPPRLPRPRPRPPPLPRP | 0.739
RRIRSRPPRLPRPRPRPPPMPRP | 0.817
RRIRSRPPRLPRPRPRPPQAPRP | 0.768
RRIRSRPPRLPRPRPRPPRHPRP | 0.219
RRIRSRPPRLPRPRPRPPRTPRP | 0.619
RRIRSRPPRLPRPRPRPPSWPRP | 0.482
RRIRSRPPRLPRPRPRPPVTPRP | -0.0798
RRIRSRPPRLPRPRPRPQACPRP | 0.125
RRIRSRPPRLPRPRPRPQAFPRP | -0.114
RRIRSRPPRLPRPRPRPQARPRP | 0.122
RRIRSRPPRLPRPRPRPQCPPRP | -0.172
RRIRSRPPRLPRPRPRPQFHPRP | -0.206
RRIRSRPPRLPRPRPRPQFTPRP | -0.714
RRIRSRPPRLPRPRPRPQFVPRP | -0.184
RRIRSRPPRLPRPRPRPQGGPRP | 0.171
RRIRSRPPRLPRPRPRPQGLPRP | 0.0641
RRIRSRPPRLPRPRPRPQGPPRP | -0.0522
RRIRSRPPRLPRPRPRPQHSPRP | -0.658
RRIRSRPPRLPRPRPRPQKFPRP | -0.14

Sequence | shrunken log2 fold change
RRIRSRPPRLPRPRPRPQKKPRP | -0.0597
RRIRSRPPRLPRPRPRPQLEPRP | 0.455
RRIRSRPPRLPRPRPRPQLPPRP | 0.53
RRIRSRPPRLPRPRPRPQLTPRP | -0.136
RRIRSRPPRLPRPRPRPQNRPRP | -0.106
RRIRSRPPRLPRPRPRPQPWPRP | 0.366
RRIRSRPPRLPRPRPRPQSTPRP | -0.24
RRIRSRPPRLPRPRPRPQTFPRP | -0.136
RRIRSRPPRLPRPRPRPQTHPRP | 0.901
RRIRSRPPRLPRPRPRPRAPPRP | 0.716
RRIRSRPPRLPRPRPRPRAQPRP | 0.106
RRIRSRPPRLPRPRPRPRARPRP | 0.408
RRIRSRPPRLPRPRPRPRCHPRP | -0.0928
RRIRSRPPRLPRPRPRPRDHPRP | 0.0497
RRIRSRPPRLPRPRPRPRDNPRP | -0.0866
RRIRSRPPRLPRPRPRPRETPRP | 0.124
RRIRSRPPRLPRPRPRPRHKPRP | -0.262
RRIRSRPPRLPRPRPRPRIDPRP | 0.0938
RRIRSRPPRLPRPRPRPRKKPRP | 0.362
RRIRSRPPRLPRPRPRPRLDPRP | 0.25
RRIRSRPPRLPRPRPRPRMMPRP | 0.0975
RRIRSRPPRLPRPRPRPRMNPRP | 0.079

Sequence | shrunken log2 fold change
RRIRSRPPRLPRPRPRPRMQPRP | 0.108
RRIRSRPPRLPRPRPRPRMYPRP | -0.113
RRIRSRPPRLPRPRPRPRNNPRP | -0.212
RRIRSRPPRLPRPRPRPRNSPRP | -0.264
RRIRSRPPRLPRPRPRPRQHPRP | 0.169
RRIRSRPPRLPRPRPRPRQRPRP | 0.293
RRIRSRPPRLPRPRPRPRRDPRP | 0.297
RRIRSRPPRLPRPRPRPRRVPRP | 0.452
RRIRSRPPRLPRPRPRPRSFPRP | 0.124
RRIRSRPPRLPRPRPRPRSSPRP | -0.269
RRIRSRPPRLPRPRPRPRTSPRP | 0.211
RRIRSRPPRLPRPRPRPRVQPRP | -0.25
RRIRSRPPRLPRPRPRPRWEPRP | 0.275
RRIRSRPPRLPRPRPRPRWWPRP | 1.26
RRIRSRPPRLPRPRPRPRYIPRP | -0.707
RRIRSRPPRLPRPRPRPSAKPRP | 2.05
RRIRSRPPRLPRPRPRPSANPRP | -0.0142
RRIRSRPPRLPRPRPRPSAVPRP | 0.091
RRIRSRPPRLPRPRPRPSCHPRP | -0.245
RRIRSRPPRLPRPRPRPSCYPRP | -0.511
RRIRSRPPRLPRPRPRPSDEPRP | -0.673
